Target: N. viridula BBMV proteins
Experiment: competition pull-down: biotinylated peptide against ABP5-(AP)5-mCherry on BBMV

MDWPRRN (biotinylated (position not given)) [biotinylated synthetic peptide (ABP5)]
competitor peptide concentration at which binding was outcompeted: > 10 µM

Reference: patent US20240090511A1
